{
  "source": "patent US20230201361",
  "test_system": "eighteen amino acid peptide containing the amino acid sequence PLGIA, covalently labeled with the same fluorophore near each end (HES structure)",
  "data": [
    {"substance": "matrix metalloprotease -9 (MMP-9)", "values": [
      {"measurement": "HPLC retention time (C18, reverse phase)", "result": "After exposure to MMP-9, the major peaks were at ca. 30 and 31 minutes with the almost complete disappearance of the 38 minute peak"},
      {"measurement": "cleavage of the peptide", "result": "The PLGIA sequence was recognized by matrix metalloprotease -9 (MMP-9) and is cleaved between the LG and the IA"}
    ]}
  ]
}
